The source of these data is publication PMC3759449.

For assay [1], the target named is NrCAM, rat (pcDNA3 plasmid) (rat) (UniProt P97686).
Assay [2] has as its target NrCAM, rat, tyrosine-phosphorylated in the FIGQY motif by co-expressed EphB2 (rat) (UniProt P97686).

As for “ankyrinG-EGFP fusion protein (from UniProt O70511 1-2622) (natural protein)”, the percent of cells with ankyrinG-EGFP recruited to the plasma membrane, HEK293 cells co-expressing ankyrin/NrCAM/EphB2 KD (kinase dead mutant K662R) in assay [1] was determined as 84%. The percent of cells with ankyrinG-EGFP recruited to the plasma membrane, HEK293 cells co-expressing ankyrin/NrCAM/EphB2 in assay [2] was 7%.
